Residue numbers refer to the chain shown, from its start.

Sequences and labels used below:
B1: C838 (antibody, V domains shown)
VH: EVQLVESGGGLVQPGKSLRLSCTASGFTFEDYAMHWVRQAPGKGLEWVSGINWKSGSRGYADSAKGRFTISGNTAKNTLHLQMNSLRAEDTAFYYCAKAGVRNIAAAGPDLNFDFWGQGTLVTVSS
VL: EIVLTQSPATLSLSPGERATLSCRASQSVGTYLAWYQHKLGQAPRLLIYDATKRATGIPARFSGSGSGTDFTLTISSLEPEDFAIYYCQQRITFGQGTRLEIK
notes: IgG; V domains only
B2: C990 (antibody, V domains shown)
VH: EVQLVESGGGLVRPGGSLRLSCAASGFTVGSNFMSWVRQAPGKGLEWVSLIYSGGGTHYAESVKGRFTISRDKSKNTLYLQMNSLRAEDTAVYYCANQGYYYYMDVWGKGTTVTVS
VL: QSALTQPASVSGSPGQSITISCTGTSSDVGAYNYVSWHQHHPGKAPKLIIYDVSNRPSGVSNRFSGSKSGNTASLTISGLQAEDEADYYCTSYTNTTTPWVFGGGTKLTVL
B3: C1008 (antibody, V domains shown)
VH: EVQLVESGGGLIQPGGSLRLSCAASGFTVSSNYMSWVRQAPGKGLEWVSVIYSGGSTYYADSVKGRFTISRDNSKNTLYLQMNSLRAEDTAVYYCARVVGYDFWSGYDGGYFDYWGQGTLVTVSS
VL: QSALTQPASVSGSPGQSITISCTGTSSDVGSYNLVSWYQQHPGKAPKLMIYEVSKRPSGVSNRFSGSKSGNTASLTISGLQAEDEADYYCCSYAGSSTWVFGGGTKLTVL
B4: C1006 (antibody, V domains shown)
VH: QVQLVQSGAEVRKPGSSVKVSCKASGGPFDQYTFSWVRQAPGQGLEWMARITPVVDLTNYAQKFQGRITIITDKSTSTAYMELSSLRSEDTAIYYCATPLNDYYASGNLGLWGQGTLVTVSS
VL: DIQMTQSPSSLSASIGDRVTITCRASQGISYYLAWFQQKPGEAPRSLIYDASSLQSGVPSKFSGSGSGTDFTLTISSLQPEDSATYYCQQYNSYPLTFGGGTKVEIK
B5: C1007 (antibody, V domains shown)
VH: QVQLVQSGSEMKKPGSSVKVSCKAAGGTLNTHTFSWVRQAPGQGLEWMGRITPTVDLTNYAQKFQGRITITADTSTNTAYLELRRLRSEDTAIYYCATPLNDYYASGNLGLWGQGTLVTVSS
VL: B4 VL with R18T, Q38R, E42K, R45K, N92S, S93T
B6: C1001 (antibody, V domains shown)
VH: QVQLQESGPGLVKPSQTLSLTCTVSGGSISSGDYYWTWIRQPPGKGLEWIGYIFYSGITYYSPSLKSRLTMSIDTSKSQFSLNLSSVTAADTAVYYCARWKRLLQSLHFDYWGQGILVTVSS
VL: QSALTQPRSVSGSPGQSVTISCTGTSSDVGSYDYVSWYQQHPGKAPKVMIYGVDERPSGVPHRFSGSKSGNTASLTISGLQADDEADYFCCFYAGSYTLLFGGGTKVTVL
B7: C997 (antibody, V domains shown)
VH: EVQLLESGGGLVQPGGSLRLSCAASGFTFSKDAMSWVRQAPGKGLEWVSTVTGSGTNTYYADSVKGRFTISRDNSNNTLYLQMNSLRAEDTAVYYCANHPLGAAEGYYYYYMDVWGKGTTVTVSS
VL: EIVLTQSPGTLSLSPGERGTLSCRASQRVPSSQLAWYQQKSGQAPRLLIYGASSRASGIPDRFSGSGSGTDFTLNISRLEPEDFAVYYCQQYGSLRALTFGGGTKVEIK
B8: C996 (antibody, V domains shown)
VH: EVQLVESGGGLVQPGGSLRLSCVASGFTSTNYDMHWVRQAPGRGLQWVSSIGTAGDTYYPGSVRGRFTISRENAKNSLDLQMNSLRVGDTAVYYCARGQRGYYDRSGYYWGWRAFDIWGQGTMVTVSS
VL: SYELTQPPSVSVAPGQTARITCGGNNIGNKSVYWYQQKPGQAPVLVVYDDSGRPSGIPERFSGSNSANTATLTISRVEAGDEADYYCQVWDNNSDQFGGGTKLTVL
B9: C998 (antibody, V domains shown)
VH: QVQLVQSGAEVKKPGASVKVSCKTSGYTFISYYIHWVRQAPGQGLEWMGIINPDGDNTNYAQKFQGRVTMTRDTSTSTVYMELSSLRFEDTAVYYCARGGAIPALRTAFDIWGQGTMVTVSS
VL: DIQMTQSPSTLSASVGDRVTITCRASQSISNWLAWYQQKPGKAPKLLIYKASSLESGVPSRFSGSGSGTEFTLTISSLQPDDFATYYCQEYNSYYFGQGTKLEIK
B10: C999 (antibody, V domains shown)
VH: QVQLVQSGAEVRRPGASVKVSCKASGYTLTHYYIHWVRQAPGQGLEWVGIINPDGDNTNYAQKFQGRVTMTRDTSTSTVYMELSSLRSEDTAIFYCARGGAIPALRSAFDIWGQGTMVTVSS
VL: B9 VL with S30N, S53T, E90Q, Y95F
B11: C1000 (antibody, V domains shown)
VH: QVQLQESGPGLVKPSQTLSLSCTVSGGSISSDDYYWSWIRQPPGKGLEWIGYIYYSGSTYYNSSLKSRVSISVDTSKNQFSLKLSSVTAADTAVYYCARWKRWLQFLYFDYWGQGTLVTVSS
VL: QSALTQPRSVSGSPGQSVTISCTGTSSDVGGYSFVSWYQQHPGKAPKVLIYDVDKRPSGVPDRLSGSKSGNTASLTISGLQAEDEADYYCCSYAGSYTLIFGGGTKLTVL
B12: C995 (antibody, V domains shown)
VH: EVQLVESGGGLIQPGRSLRLSCTASGFSVGDYAMSWFRQAPGKGLEWVGFLRNQHYGGTAEYAASVKGRFSISTDASKNIVYLQMDSLKTEDTAVYYCARNDRYIVIVPAEMLYWGQGTLVTVSS
VL: EIVMTQSPATLSVSPGERATLSCRATESVYSNLAWYQQKPGQAPRLLMYDASTRAPGIPARFSGSGSGTEFTLTISSLQSEDFATYYCQQYSNWPPITFGQGTRLEIK
B13: C1003 (antibody, V domains shown)
VH: QVQLVESGGGVVQPGRSLRLSCAASGFAFSSYGMNWVRQAPGKGLEWVTTVSSDGNVNYYIDSVKGRFTISRDNSKNTLYLQMNSLRGDDTAVYYCAKGPRFGWSYRGGSGFDIWGQGTMVTVSS
VL: DIQMTQSPSSLSASVGDRVTITCQASQDISNYLNWYQQKPGKAPKLLIYDASNLETGVPSRFSGSGSGTDFTFTITSLQPEDIATYYCQQYDNLPITFGQGTRLEIK
B14: C984 (antibody, V domains shown)
VH: QVQLVQSGTEVKKPGDSVQVSCKTSGYSFTGYYIHWVRQAPGQGLEWMGRINPNSGGTNYAQKFQGRVIMTRDTSITTAFMELTRLRYDDTAVYFCAREPIEGVIGGMIVNYYYMDVWGRGTTVTVSS
VL: QSALTQPASVSGSPGQSITISCTGTSSDVGGYYYVSWYQQHPGKAPKLMIYDVSSRPSGVSNRFSGSKSGNTASLTISGLQAEDEADYYCSSYTSSNTLVVFGGGTKLTVL
B15: C985 (antibody, V domains shown)
VH: QVQLVQSGAEVKKPGASVKVSCKASGYIFTGYYMHWVRQAPGQGLEWMGRINPNSGGSRYAEKFQGRVTMTRDTSIITAFMELRGLKSDDTAVYYCAREPIEAVPAGIIVNYYYMDVWGNGTTVTVSS
VL: B14 VL with Y33N, S54T, N62D, N71T, Y93F, S96A, N97F
B16: C987 (antibody, V domains shown)
VH: QVQLQESGPGLVKPSETLSLTCNVSGDIINKYYWSWIRQSPGKGLEWIGYIYYSGTTYYNPSLKSRVTMSVGTSKQQFSLRLTSVTAADTAVYYCARMLSTEWSFNWFDPWGPGTLVTVSS
VL: SYELTQPPSVSVSPGQAASITCSGDKLGDKFACWYQQKPGQSPVLVIYQNDKRPTGIPERFSGSNSGNTATLTISGTQAMDEADYFCQAWDSTSASVFGTGTKVTVL
B17: C992 (antibody, V domains shown)
VH: QVQLQESGPGLVKPSQTLSLTCTVSGGSISNGGYFWTWIRQHPVKGLEWIGYIYYSGSPHYNPSLKSRLSISLDTFKNQFSLNLSSVTAADTAVYYCARGDTFGRGYYFDFWGQGTLVTVSS
VL: SYELTQPPSVSVAPGQTARITCGGNNIGTNSMHWYQQKPGQAPVLVVFDDSDRPSGIPERFSGSNSGNTATLTISRVEAGDEADYHCQVWDRSSDRPWVFGGGTKLTVL
B18: C986 (antibody, V domains shown)
VH: EVQLVQSGAEVKKPGETLKISCKGSGDSFSNYWIGWVRQSPGKGLEWMAIVYPGDSDARYSPSFQGQVTISADKSVTTAYLKWSSLKASDTAIYYCVRGLPVDWYFDLWGRGTLVTVSS
VL: QSVLTQPPSVSGAPEQRVTISCTGSSSNIGAGHDVHWYQQLPGTAPKLLIYNNNNRPSGVPDRFSGSKSGASASLAISGLQAEDEAEYYCQSYDKSLSVLYVLGTGTKVTV
B19: C993 (antibody, V domains shown)
VH: EVQLLESGGGLVQPGGSLRLSCAASGFPFSIYAMSWVRQAPGKGLEWVSGMRGTTGTTYYADSVKGRFAISRDNSKNMLHLQMNSLRAEDTAVYYCAKSDHGDYVIGAFDIWGQGTMVTVSS
VL: QSALTQPPSASGSPGQSVTISCTGTSGDVGGYNYVSWYQQHPGKAPKLMIYEVSKRPSGVPDRFSGSKSGNTASLTVSGLQAEDEADYYCNSYAGSNNWVFGGGTKLTVL
B20: C983 (antibody, V domains shown)
VH: QVQLVESGGGVVRPGRSLRLSCAASGFTFSKYGMHWVRQAPGKGLECVASIAYDGSDDSYADSVKGRFIISRDNSKNTLYLQMNSLRAADTAVYYCAKVLGSYCSASSCHGQRPDYWGQGTLVTVSS
VL: DIQMTQSPSSLSAYVGDRVTITCQASQDISNHLNWYQQKPGKAPNLLIYDASNLETGVPSRFSGSGSGTDFSFTISSLQPEDIATYYCQQYDNVPPWTFGQGTKVEIK
B21: C1002 (antibody, V domains shown)
VH: EVQLVESGGGLVQPGGSLRLSCAASEFIVSSNYMTWVRQAPGKGLEWVSIMYPGGSTFYADSVKGRFTISRDNSKNTLYLQINRLRAEDTAVYYCARDIAGRLDYWGQGTLVTVSS
VL: B20 VL with Y14S, S30N, H32Y, N45K, V94L, P95S, P96R, W97L, Q101G
B22: C994 (antibody, V domains shown)
VH: QVQLQESGPGLVKPSGTLSLTCAVSGVSISNTNWWNWVRQPPGKGLEWIGEIYHTGSARYNPSLRSRVTISVDKSKNQFSLRLNSATAADTAIYYCARAQTPEFGELLYWGQGALVTVSS
VL: DIQMTQSPSSLSASVGDRVTITCRASQSITDHLNWYQQKPGKAPKLLIYAASSLQTGVPSRFSGSGSETDFTLTISTLQPEDFATYYCQQSYGPPTYSFGQGTKLEIK

One test has as its target T1, SARS-COV-2 RBD (SARS-COV-2, UniProt P0DTC2 319-539).
T1 construct: also called WT RBD
The test is described as follows: ELISA, RBD coated. On the technique in general: ELISA stands for enzyme-linked immunosorbent assay.
Broadly, the EC50 is the concentration needed to bring the measured effect to its halfway point. Low values mean an effect from little substance, high ones a need for much substance. On to B1, for which the EC50 was found to be 3.03 ng/mL.

Another test concerns the target T2, SARS-COV-2 RBD (SARS-COV-2, UniProt P0DTC2 319-539).
T2 construct: also called WT RBD
Put plainly: ELISA, RBD coated on plate.
Molecule B2 came in with an EC50 of 1.85 ng/mL.

In turn, B3 registered a concentration for a half-maximal effect (EC50) of 17.2 ng/mL.

In turn, B4 yielded an EC50 of 2.04 ng/mL.

The molecule B5 had an EC50 of 3.22 ng/mL.

On to B6, for which the EC50 was 3.23 ng/mL.

Regarding B7, it took 3.49 ng/mL to reach a half-maximal effect (EC50).

B8 displayed an EC50 of 3.07 ng/mL.

The molecule B9 showed a concentration giving a half-maximal response (EC50) of 2.51 ng/mL.

Take B10: the EC50 amounted to 2.68 ng/mL.

As for B11, the response was half-maximal at 3.2 ng/mL (EC50).

B12: the EC50 came out at 3.79 ng/mL.

Regarding B13, it took 1.82 ng/mL to reach a half-maximal effect (EC50).

Molecule B14 had an EC50 of 2.76 ng/mL.

For B15, a half-maximal effect (EC50) was put at 3.67 ng/mL.

In turn, B16 registered an EC50 of 3.11 ng/mL.

In turn, B17 had an EC50 of 3.24 ng/mL.

Consider B18, for which a half-maximal response (EC50) required 3.36 ng/mL.

Molecule B19 had an EC50 of 2.29 ng/mL.

On to B20, for which it took 2.11 ng/mL to reach a half-maximal effect (EC50).

B21 yielded a half-maximal effective concentration (EC50) of 0.83 ng/mL.

In turn, B22 came in with an EC50 of 2.09 ng/mL.

The record behind these values is US20240218057A1 (ROCKEFELLER UNIVERSITY, published 2024).
